Assay: yeast display, Sf9 membrane polyspecificity reagent, FACS + sequencing; frameworks hold sequencing errors
Outline: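 Synthetic nanobody libraries on Saccharomyces cerevisiae BJ5465 were galactose-induced for 36–48 hours, stained 1 hour at 4 °C with 10% biotinylated, detergent-solubilized Sf9 membrane reagent and enriched on streptavidin microbeads. FACS then separated cells into low and high (top ~1%) gates by anti-HA (expression) and streptavidin (reagent binding) fluorescence. Genes were colony-PCR amplified, MiSeq 2 × 250 sequenced and CDR-length filtered. A clone's polyreactivity label is that of its gate of origin.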

Sequence | polyreactivity (PSR sort gate)
QLQLVESGGGLVQAGGSLRLSCAPSGRILWVNAMGWYRQAPGKERELVAAISLSGGRTYYADSVKGRFTISRDNAKNTVYLQMNSLKPEDTAVYYCAARTVNYYYTTGDYWGQGTQVTVSS | low polyreactivity
QLQLVESGGGLVQAGGSLRLSCAPSGRTFVGNAMGWYRQAPGKERELVAAITLSDGSTYYADSVKGRFTISRDNAKNTVYLQMNSLKPEDTAVYYCATQPLYWYDVVVNIRGPSGYWGQGTQVTVSS | low polyreactivity
QLQLVESGGGLVQAGGSLRLSCAPSGSIFLNYAMGWYRQAPGKERELVATIRRRGGSTYSADSVKGRFTISRDNAKNTVYLQMNSLKPDDTAVYYCNAEQLVSRARPYDYWGQGTLVTVSS | high polyreactivity
QLQLVESGGGLVQAGGSLRLSFAASSIIPYNAMGWYRQAPVNEREFVAAISVRGVITYYADSVKGRFTISRDNAKNTVYLQMNSLKPEDTAVYDCAADYQPAGVDYWGQGTQVTVSS | low polyreactivity
QLQLVESGGGLVQAGGSLRLSSAASGSIFIYYAMGWYRQAAGKERELVAAISYSDGDTYYADSVKGRFTISRDNAKNTVYLQMNSLKPEDTAVYYCAAEVPQYYDVGWEDYWGQGTQVTVSS | high polyreactivity
QLQLVESGGGLVQAGGSLSLSCAASGRTVYGYSMGWYRQAPGKERELVAAISKTGGSTYYADSVKGRFTISRDNAKNTVYLQMNSLKPEDTAVYYCNARDTSGFTRFSSKYDYWGQGTQVTVSS | high polyreactivity
QLQLVESGGGLVQAGGSLSLSCAASGSIFGYNAMGWYRPAPGKEREFVAAISFRGTSTYYADSVKGRFTISRDNAKNPVYLQMYSLKPEDTAVYYCAARSYDGDHYKHGYWGQGTQVTVSS | high polyreactivity
QLQLVESGGGLVQEGGSLRISCDASGSTFDDNAMACYRQAPGKERELVAGIDVSGGSTYYADSVKGRFTISRDNAKKTVYLQMTSLTPEDTAVYFCAKGRPGHRTSSVNFNYWGQGTQVTVSS | low polyreactivity
QLQLVESGRGLVQAGGSLRLSCAASGSIFYSNAKGWYRQATGKERELVATITWSGGRTYYADSVKGRFTISRDNGKNSVYLQMNRLKPEDTAVDYCAVVDRHQPYGRQLDYWGQGTQVTVSS | low polyreactivity
QLQLVESGRGLVQAGGSLRLSCAASVRTFTCYTMGSYRQAPGKEREFVAAIRKSGGSTYYADSVKGRFTISRDNAKNTVYLQMNSLKPEDTAVYYCAAERLYGYWKYIGYDWGQGTQVTVSS | high polyreactivity
QLQLVESGRGLVQAGGTLRLSCAASGRIFGKNAIGSYRQAPGKEMELVAAITGSGGRTYNADSVKGRFTISRDNAKNTVYLQMNSMKPEDTAVYYCAVRVTSYYRTMDYWGQGTQGTVSS | low polyreactivity
QLQLVESGVGLVQAGGSLRLSCAASGSILPVYPMGWYRQAPGKERELVAAISVSGGSTSYADSVKGRFTISRDNAKNTVYLQMNSLKPEDTAVYYCAARYRYSYGYWGQGSQVTVSS | high polyreactivity
QLQLVETGGGLVQAGGSLRLSCAASGFTLYSYAMGWYRQDPGKEREFVADGSTYYADSVKGRFTISRDNAKNTVYLQINSLKPEDTAVYYCAADPWIYVQSYGYWGQGTQVTVSS | low polyreactivity
QQQLHESGGGLVQAGGSLRLSCAASGSISQAWYMGWYRQAPGKERELVAAINVGAITYYADIVKGRFSISRDNAKNTVFLPMNSLTPEDTAVYYCAVDQYSEAYYDYWGQGTQATVSS | high polyreactivity
QRQLVESGGGLVQAGGRLRLSCAASGMTVWDYAMGWYRHATGKERQLVAAISGSGARTYYADSVKWRFTISRDTAKNTVYLQMNSLNPEDTAVYYCAARAVRATAKYEYWGQGTQVTVSS | high polyreactivity
QVDLVASGGGLVQAGGSLRLSCAASGNIFANYAMGSYRQAPGKERELVAAIRWSASRTYYADSVKARFTISRDNAKNSVYFQLNSLKPEDTAVYYCAATIYTFWDYYYDYWGQGTQVTVSW | high polyreactivity

From the nanobody polyreactivity screen of Harvey et al. (2022)
